# Data: patent publication US20250115669A1, “FGFR1/KLB Targeting Agonistic Antigen-Binding Proteins and Conjugates Thereof with GLP-1R Agonistic Peptides” (SANOFI, priority 2020, published 2025)
# Assays:
# [1] = molecular target: T1, FGFR1c and co-receptor beta-Klotho (KLB) (Homo sapiens, UniProt P11362+Q86Z14); test: Luciferase reporter gene assay (iLite FGF21 Assay Ready Cells), FGF21-like signaling; format: cell-based
# T1 construct: host or cells: iLite FGF21 Assay Ready Cells (HEK293)
# [2] = Size-exclusion chromatography (SEC); format: physicochemical
# Experimental: Analytical SEC was performed using a BioSECcurity instrument (PSS Polymer) with an AdvanceBio 300 column (4.6 mm×300 mm) and AdvanceBio 300 guard column (Agilent Technologies) at room temperature. The analysis was run at a flow rate of 0.5 mL/min using 2× concentrated D-PBS buffer (Thermo Fisher Scientific) with detection at 280 nm. 10 μL of protein sample (at 1 mg/mL) were applied onto the column. Data evaluation was performed using WinGPC software v8.1 (PSS Polymer). For estimation of the molecular weight, the SEC column was calibrated with the AdvanceBio SEC 300 Å Protein Standard (Agilent Technologies).
# [3] = Hydrophobic interaction chromatography (HIC); format: physicochemical
# Experimental: The analysis was run at a flow rate of 1 mL/min with detection at 280 nm. 5 μg of undiluted protein sample were applied onto the column. Gradient elution was from 15% B to 85% B in 7 min followed by 1 min to 100% B, then 1 min to 15% B and then 3 minutes equilibration at 15% B. Buffer A was composed of 1.5 mol/L ammonium sulfate, 25 mmol/L sodium phosphate pH 7.0. Buffer B was composed of 25 mmol/L sodium phosphate pH 7.0. Data evaluation was performed either using LabSolutions software v5.85 (Shimadzu) or Chromeleon 7 software (Thermo Fisher Scientific).
# [4] = In vivo PK in cynomolgus monkeys, single intravenous dose; set-up: species or system Cynomolgus monkey (Macaca fascicularis); conditions: Macaca fascicularis, 3.0 mg/kg single IV, plasma
# Experimental: Naive cynomolgus monkeys received a single intravenous dose of mAb according to the following table:
# In all investigations, the animals were evaluated twice daily for post-dose mortality/moribundity and cage side clinical observations were carried out after each study blood collection time. Studies were Non-GLP, nevertheless, these studies have been conducted in a GLP compliant facility using practices detailed in Standard Operating Procedures consistent with the principles of GLP (Test facility: Sanofi and Charles River Laboratories). Plasma concentrations and pharmacokinetic parameters of the tested antibodies were investigated after single intravenous administration.
# T1 sequence (Q86Z14 53-1044 limits assumed): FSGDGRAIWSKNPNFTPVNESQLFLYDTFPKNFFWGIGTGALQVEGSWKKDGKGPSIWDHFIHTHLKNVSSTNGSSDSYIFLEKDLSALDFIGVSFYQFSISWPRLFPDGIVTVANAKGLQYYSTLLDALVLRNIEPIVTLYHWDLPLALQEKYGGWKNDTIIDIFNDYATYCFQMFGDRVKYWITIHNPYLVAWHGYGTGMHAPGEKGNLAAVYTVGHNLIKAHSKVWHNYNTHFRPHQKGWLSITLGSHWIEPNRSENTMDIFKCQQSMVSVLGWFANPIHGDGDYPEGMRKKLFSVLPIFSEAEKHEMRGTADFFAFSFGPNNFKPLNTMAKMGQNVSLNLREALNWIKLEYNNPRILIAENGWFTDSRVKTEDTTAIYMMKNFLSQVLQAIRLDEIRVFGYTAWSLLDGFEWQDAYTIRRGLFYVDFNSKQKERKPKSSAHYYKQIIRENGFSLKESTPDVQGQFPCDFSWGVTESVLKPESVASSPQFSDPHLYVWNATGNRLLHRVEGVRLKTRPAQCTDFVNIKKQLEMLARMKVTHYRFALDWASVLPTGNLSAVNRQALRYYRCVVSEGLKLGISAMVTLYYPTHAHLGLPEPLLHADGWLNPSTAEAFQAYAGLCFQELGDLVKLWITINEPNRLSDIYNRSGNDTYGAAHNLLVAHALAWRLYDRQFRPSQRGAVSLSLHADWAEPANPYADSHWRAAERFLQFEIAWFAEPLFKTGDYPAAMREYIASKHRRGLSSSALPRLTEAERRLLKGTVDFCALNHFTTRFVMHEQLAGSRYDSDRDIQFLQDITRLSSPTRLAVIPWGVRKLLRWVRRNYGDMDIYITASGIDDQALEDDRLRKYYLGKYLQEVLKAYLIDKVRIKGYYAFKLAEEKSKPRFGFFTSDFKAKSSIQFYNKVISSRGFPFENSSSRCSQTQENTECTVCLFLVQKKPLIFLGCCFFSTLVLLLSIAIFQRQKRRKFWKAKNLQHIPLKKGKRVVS
# T1 sequence (P11362 22-820 isoform P11362-2 limits assumed): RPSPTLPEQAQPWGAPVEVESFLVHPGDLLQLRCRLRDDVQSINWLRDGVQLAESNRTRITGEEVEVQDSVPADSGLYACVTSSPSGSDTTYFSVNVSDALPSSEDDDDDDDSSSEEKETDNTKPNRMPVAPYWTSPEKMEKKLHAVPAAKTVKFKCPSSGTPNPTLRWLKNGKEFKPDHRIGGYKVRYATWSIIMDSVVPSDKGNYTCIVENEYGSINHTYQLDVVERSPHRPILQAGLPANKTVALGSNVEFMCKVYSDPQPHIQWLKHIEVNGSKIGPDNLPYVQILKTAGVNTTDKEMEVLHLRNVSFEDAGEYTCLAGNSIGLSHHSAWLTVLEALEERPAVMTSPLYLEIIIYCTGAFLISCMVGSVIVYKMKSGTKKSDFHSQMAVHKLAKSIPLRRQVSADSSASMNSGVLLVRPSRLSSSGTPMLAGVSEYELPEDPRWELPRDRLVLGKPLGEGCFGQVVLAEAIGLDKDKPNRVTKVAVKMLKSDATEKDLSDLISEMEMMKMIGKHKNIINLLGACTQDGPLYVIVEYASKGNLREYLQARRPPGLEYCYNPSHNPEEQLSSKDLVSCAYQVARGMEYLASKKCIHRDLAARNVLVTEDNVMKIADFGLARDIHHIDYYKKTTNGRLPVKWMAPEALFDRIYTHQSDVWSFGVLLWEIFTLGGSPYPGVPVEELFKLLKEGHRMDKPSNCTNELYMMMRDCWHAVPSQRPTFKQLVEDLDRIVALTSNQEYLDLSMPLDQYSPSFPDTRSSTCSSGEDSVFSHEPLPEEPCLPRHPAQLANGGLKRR
Substance,"SEC % HMW ([2]; pH 5, 40° C., d 21) [%]","SEC % LMW ([2]; pH 5, 40° C., d 21) [%]","SEC % HMW ([2]; pH 5, d 0) [%]","SEC % LMW ([2]; pH 5, d 0) [%]","SEC % HMW ([2]; pH 6, 40° C., d 21) [%]","SEC % LMW ([2]; pH 6, 40° C., d 21) [%]","SEC % HMW ([2]; pH 6, d 0) [%]","SEC % LMW ([2]; pH 6, d 0) [%]","SEC % HMW ([2]; pH 8, 40° C., d 21) [%]","SEC % LMW ([2]; pH 8, 40° C., d 21) [%]","SEC % HMW ([2]; pH 8, d 0) [%]","SEC % LMW ([2]; pH 8, d 0) [%]",Hydrophobic variance HIC Number of peaks [3],"HIC Number of peaks ([3]; pH 5, 40° C., d 21)","HIC Number of peaks ([3]; pH 5, d 0)","HIC Number of peaks ([3]; pH 6, 40° C., d 21)","HIC Number of peaks ([3]; pH 6, d 0)","HIC Number of peaks ([3]; pH 8, 40° C., d 21)","HIC Number of peaks ([3]; pH 8, d 0)",further results
"Ab0351: IgG4 PE; 16H7 VL (N25S, D49E, D50E, D91E, N93E); 16H7 VH (M34V, I83T, D109E); HC SEQ ID NO: 40, LC SEQ ID NO: 47",1,0,2,0,1,0,0,0,2,1,1,0,1,1,1,1,1,1,1,cellular activity in the Luciferase gene reporter assay compared to 16H7 [1]: comparable cellular activity
"Ab0428: IgG1 NNAS; 16H7 VL (N25S, D49S, D50E, D91E, N93E); 16H7 VH (M34V, I83T, D109E); HC SEQ ID NO: 41, LC SEQ ID NO: 48",1,2,2,0,0,2,1,0,1,3,1,0,1,1,1,1,1,1,1,
"Ab0429: IgG1 NNAS; 16H7 VL (N25S, D49S, D50A, D91E, N93E); 16H7 VH (M34V, I83T, D109E); HC SEQ ID NO: 42, LC SEQ ID NO: 49",1,2,2,0,0,1,0,0,1,3,2,0,1,1,1,1,1,1,1,t½ [4]: 183 h
"Ab0430: IgG1 NNAS; 16H7 VL (N25S, D49E, D50E, D91E, N93E); 16H7 VH (M34V, I83T, D109E); HC SEQ ID NO: 43, LC SEQ ID NO: 50",1,2,1,0,0,2,1,0,1,4,2,0,1,1,1,1,1,1,1,
